For 1 substance, Kd results are on record in publication PMC7775388.

This experiment has as its target full-length SARS-CoV-2 spike protein (residues 13-1273 of UniProtKB P0DTC2) fused to green fluoresce (SARS-CoV-2) (UniProt P0DTC2). Kind of experiment: flow cytometry on cells.

Sequence of recombinant ACE2-Fc fusion protein (residue Gln18-Ser760 fused to human Fc) (Q9BYF1 18-740 limits assumed): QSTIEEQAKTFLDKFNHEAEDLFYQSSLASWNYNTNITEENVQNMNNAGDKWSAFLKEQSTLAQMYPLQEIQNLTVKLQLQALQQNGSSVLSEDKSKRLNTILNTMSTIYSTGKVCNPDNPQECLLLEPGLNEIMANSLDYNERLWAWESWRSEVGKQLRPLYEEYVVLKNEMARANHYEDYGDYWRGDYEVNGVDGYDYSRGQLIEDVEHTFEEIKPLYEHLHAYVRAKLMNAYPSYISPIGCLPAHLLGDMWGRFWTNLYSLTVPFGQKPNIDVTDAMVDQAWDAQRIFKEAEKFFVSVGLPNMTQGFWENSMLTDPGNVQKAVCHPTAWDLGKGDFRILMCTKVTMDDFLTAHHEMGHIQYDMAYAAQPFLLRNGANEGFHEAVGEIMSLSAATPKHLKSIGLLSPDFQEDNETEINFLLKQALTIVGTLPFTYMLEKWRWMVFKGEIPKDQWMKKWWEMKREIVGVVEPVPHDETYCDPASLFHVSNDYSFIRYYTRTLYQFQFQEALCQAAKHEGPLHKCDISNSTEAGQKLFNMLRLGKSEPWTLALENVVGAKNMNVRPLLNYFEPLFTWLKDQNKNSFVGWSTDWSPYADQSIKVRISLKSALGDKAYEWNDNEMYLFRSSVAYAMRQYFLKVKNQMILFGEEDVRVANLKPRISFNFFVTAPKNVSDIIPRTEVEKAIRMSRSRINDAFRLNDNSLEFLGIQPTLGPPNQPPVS

“recombinant ACE2-Fc fusion protein (residue Gln18-Ser760 fused to human Fc)” came in with a Kd of 10.9 nM.
